Patent US20100041596A1

How the values were obtained:
Settings in all cases: remark: other sources report otherwise
[1] = molecular target: T1, p60 TNFR, full-length (Homo sapiens (Human)), P19438; experiment: DTSSP crosslinking of H9 cells with or without TNFα, non-reducing gel, anti-p60 blot
T1 chain: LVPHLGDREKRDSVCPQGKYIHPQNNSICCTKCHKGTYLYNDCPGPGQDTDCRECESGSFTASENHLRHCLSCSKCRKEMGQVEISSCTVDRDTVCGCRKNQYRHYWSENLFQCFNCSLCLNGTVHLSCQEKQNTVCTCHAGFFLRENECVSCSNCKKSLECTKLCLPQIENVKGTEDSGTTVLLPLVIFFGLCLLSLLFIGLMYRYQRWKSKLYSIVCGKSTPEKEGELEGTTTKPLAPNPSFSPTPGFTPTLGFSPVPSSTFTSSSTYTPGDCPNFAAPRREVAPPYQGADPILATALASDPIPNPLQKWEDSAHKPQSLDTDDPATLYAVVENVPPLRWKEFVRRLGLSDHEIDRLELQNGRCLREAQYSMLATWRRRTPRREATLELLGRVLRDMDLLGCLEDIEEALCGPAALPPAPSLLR

[2] = molecular target: T2, Fas fusion proteins with the death domain (CFP and YFP) (Homo sapiens (Human)), P25445; experiment: CFP dequenching after YFP photobleaching, microscope
T2 chain: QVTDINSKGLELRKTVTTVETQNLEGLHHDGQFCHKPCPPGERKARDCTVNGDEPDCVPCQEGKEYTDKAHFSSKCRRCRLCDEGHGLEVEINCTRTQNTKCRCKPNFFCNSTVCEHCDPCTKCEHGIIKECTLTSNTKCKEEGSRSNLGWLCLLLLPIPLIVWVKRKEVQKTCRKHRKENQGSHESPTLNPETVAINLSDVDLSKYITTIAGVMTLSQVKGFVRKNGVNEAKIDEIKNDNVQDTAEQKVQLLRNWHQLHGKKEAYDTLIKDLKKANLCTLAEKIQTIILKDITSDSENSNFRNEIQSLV

[3] = molecular target: T3, native Fas receptor of H9 lymphoma cells (Homo sapiens (Human)), P25445; experiment: DTSSP crosslinking of H9 cells, deglycosylated lysates, anti-Fas blot
T3 chain: T2 chain

B1: p60 TNFR, full-length, P19438 30-455 (receptor)
chain: T1 chain
Work on B1 yielded a percent of chains cross-linked as apparent trimers and higher order complexes [1] of 15 to 20%.

B2: Fas fusion proteins with the death domain (CFP and YFP), P25445 26-335 (receptor, not shown: large carriers)
chain: T2 chain
In the case of B2, the FRET efficiency (E%) [2] is reported as 27%.

B3: native Fas receptor of H9 lymphoma cells, P25445 26-335 (receptor)
chain: T2 chain
B3 gave a percent of chains cross-linked as trimers (densitometry) [3] of 60%.
